According to publication PMC4601640 (2015):

T1: CK2-phosphorylated human full-length p50^Cdc37 (human, UniProt Q16543 1-378, phosphoserine at 13 (shown by Western blot))
T1 chain: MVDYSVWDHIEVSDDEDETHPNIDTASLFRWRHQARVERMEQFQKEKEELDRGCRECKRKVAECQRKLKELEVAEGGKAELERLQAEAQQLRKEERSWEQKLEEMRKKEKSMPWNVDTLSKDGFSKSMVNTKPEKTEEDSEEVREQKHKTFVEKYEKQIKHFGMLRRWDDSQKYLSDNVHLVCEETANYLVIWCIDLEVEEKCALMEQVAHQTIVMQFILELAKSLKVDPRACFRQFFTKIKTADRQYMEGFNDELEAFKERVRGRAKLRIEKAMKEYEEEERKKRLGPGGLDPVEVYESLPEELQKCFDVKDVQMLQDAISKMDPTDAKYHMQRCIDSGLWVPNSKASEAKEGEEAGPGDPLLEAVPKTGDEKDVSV


Assays:
[1] = molecular target: T1, CK2-phosphorylated human full-length …; assay: ITC; both phosphorylated
[2] = molecular target: T1, CK2-phosphorylated human full-length …; assay: ITC; phosphorylated Cdc37

| Kd [1] [nM] | Kd [2] [nM] | Binder |
| --- | --- | --- |
| 1900 |  | CK2-phosphorylated human full-length Hsp90β (natural protein, phosphoserine at 255 (shown by Western blot); Ser226 named as a CK2 site, its phosphorylation could not be verified) not shown |
|  | 1400 | human full-length Hsp90β (natural protein) not shown |
